From IntAct's records for PubMed 21293379

B1: Histone-lysine N-methyltransferase NSD2 (Homo sapiens), O96028-1 (parent)
chain: MEFSIKQSPLSVQSVVKCIKMKQAPEILGSANGKTPSCEVNRECSVFLSKAQLSSSLQEGVMQKFNGHDALPFIPADKLKDLTSRVFNGEPGAHDAKLRFESQEMKGIGTPPNTTPIKNGSPEIKLKITKTYMNGKPLFESSICGDSAADVSQSEENGQKPENKARRNRKRSIKYDSLLEQGLVEAALVSKISSPSDKKIPAKKESCPNTGRDKDHLLKYNVGDLVWSKVSGYPWWPCMVSADPLLHSYTKLKGQKKSARQYHVQFFGDAPERAWIFEKSLVAFEGEGQFEKLCQESAKQAPTKAEKIKLLKPISGKLRAQWEMGIVQAEEAASMSVEERKAKFTFLYVGDQLHLNPQVAKEAGIAAESLGEMAESSGVSEEAAENPKSVREECIPMKRRRRAKLCSSAETLESHPDIGKSTPQKTAEADPRRGVGSPPGRKKTTVSMPRSRKGDAASQFLVFCQKHRDEVVAEHPDASGEEIEELLRSQWSLLSEKQRARYNTKFALVAPVQAEEDSGNVNGKKRNHTKRIQDPTEDAEAEDTPRKRLRTDKHSLRKRDTITDKTARTSSYKAMEAASSLKSQAATKNLSDACKPLKKRNRASTAASSALGFSKSSSPSASLTENEVSDSPGDEPSESPYESADETQTEVSVSSKKSERGVTAKKEYVCQLCEKPGSLLLCEGPCCGAFHLACLGLSRRPEGRFTCSECASGIHSCFVCKESKTDVKRCVVTQCGKFYHEACVKKYPLTVFESRGFRCPLHSCVSCHASNPSNPRPSKGKMMRCVRCPVAYHSGDACLAAGCSVIASNSIICTAHFTARKGKRHHAHVNVSWCFVCSKGGSLLCCESCPAAFHPDCLNIEMPDGSWFCNDCRAGKKLHFQDIIWVKLGNYRWWPAEVCHPKNVPPNIQKMKHEIGEFPVFFFGSKDYYWTHQARVFPYMEGDRGSRYQGVRGIGRVFKNALQEAEARFREIKLQREARETQESERKPPPYKHIKVNKPYGKVQIYTADISEIPKCNCKPTDENPCGFDSECLNRMLMFECHPQVCPAGEFCQNQCFTKRQYPETKIIKTDGKGWGLVAKRDIRKGEFVNEYVGELIDEEECMARIKHAHENDITHFYMLTIDKDRIIDAGPKGNYSRFMNHSCQPNCETLKWTVNGDTRVGLFAVCDIPAGTELTFNYNLDCLGNEKTVCRCGASNCSGFLGDRPKTSTTLSSEEKGKKTKKKTRRRRAKGEGKRQSEDECFRCGDGGQLVLCDRKFCTKAYHLSCLGLGKRPFGKWECPWHHCDVCGKPSTSFCHLCPNSFCKEHQDGTAFSCTPDGRSYCCEHDLGAASVRSTKTEKPPPEPGKPKGKRRRRRGWRRVTEGK

Variants of: B1
Settings: with mdc1_human MDC1, Q14676
mdc1_human MDC1, Q14676, sequence (Q14676 whole entry): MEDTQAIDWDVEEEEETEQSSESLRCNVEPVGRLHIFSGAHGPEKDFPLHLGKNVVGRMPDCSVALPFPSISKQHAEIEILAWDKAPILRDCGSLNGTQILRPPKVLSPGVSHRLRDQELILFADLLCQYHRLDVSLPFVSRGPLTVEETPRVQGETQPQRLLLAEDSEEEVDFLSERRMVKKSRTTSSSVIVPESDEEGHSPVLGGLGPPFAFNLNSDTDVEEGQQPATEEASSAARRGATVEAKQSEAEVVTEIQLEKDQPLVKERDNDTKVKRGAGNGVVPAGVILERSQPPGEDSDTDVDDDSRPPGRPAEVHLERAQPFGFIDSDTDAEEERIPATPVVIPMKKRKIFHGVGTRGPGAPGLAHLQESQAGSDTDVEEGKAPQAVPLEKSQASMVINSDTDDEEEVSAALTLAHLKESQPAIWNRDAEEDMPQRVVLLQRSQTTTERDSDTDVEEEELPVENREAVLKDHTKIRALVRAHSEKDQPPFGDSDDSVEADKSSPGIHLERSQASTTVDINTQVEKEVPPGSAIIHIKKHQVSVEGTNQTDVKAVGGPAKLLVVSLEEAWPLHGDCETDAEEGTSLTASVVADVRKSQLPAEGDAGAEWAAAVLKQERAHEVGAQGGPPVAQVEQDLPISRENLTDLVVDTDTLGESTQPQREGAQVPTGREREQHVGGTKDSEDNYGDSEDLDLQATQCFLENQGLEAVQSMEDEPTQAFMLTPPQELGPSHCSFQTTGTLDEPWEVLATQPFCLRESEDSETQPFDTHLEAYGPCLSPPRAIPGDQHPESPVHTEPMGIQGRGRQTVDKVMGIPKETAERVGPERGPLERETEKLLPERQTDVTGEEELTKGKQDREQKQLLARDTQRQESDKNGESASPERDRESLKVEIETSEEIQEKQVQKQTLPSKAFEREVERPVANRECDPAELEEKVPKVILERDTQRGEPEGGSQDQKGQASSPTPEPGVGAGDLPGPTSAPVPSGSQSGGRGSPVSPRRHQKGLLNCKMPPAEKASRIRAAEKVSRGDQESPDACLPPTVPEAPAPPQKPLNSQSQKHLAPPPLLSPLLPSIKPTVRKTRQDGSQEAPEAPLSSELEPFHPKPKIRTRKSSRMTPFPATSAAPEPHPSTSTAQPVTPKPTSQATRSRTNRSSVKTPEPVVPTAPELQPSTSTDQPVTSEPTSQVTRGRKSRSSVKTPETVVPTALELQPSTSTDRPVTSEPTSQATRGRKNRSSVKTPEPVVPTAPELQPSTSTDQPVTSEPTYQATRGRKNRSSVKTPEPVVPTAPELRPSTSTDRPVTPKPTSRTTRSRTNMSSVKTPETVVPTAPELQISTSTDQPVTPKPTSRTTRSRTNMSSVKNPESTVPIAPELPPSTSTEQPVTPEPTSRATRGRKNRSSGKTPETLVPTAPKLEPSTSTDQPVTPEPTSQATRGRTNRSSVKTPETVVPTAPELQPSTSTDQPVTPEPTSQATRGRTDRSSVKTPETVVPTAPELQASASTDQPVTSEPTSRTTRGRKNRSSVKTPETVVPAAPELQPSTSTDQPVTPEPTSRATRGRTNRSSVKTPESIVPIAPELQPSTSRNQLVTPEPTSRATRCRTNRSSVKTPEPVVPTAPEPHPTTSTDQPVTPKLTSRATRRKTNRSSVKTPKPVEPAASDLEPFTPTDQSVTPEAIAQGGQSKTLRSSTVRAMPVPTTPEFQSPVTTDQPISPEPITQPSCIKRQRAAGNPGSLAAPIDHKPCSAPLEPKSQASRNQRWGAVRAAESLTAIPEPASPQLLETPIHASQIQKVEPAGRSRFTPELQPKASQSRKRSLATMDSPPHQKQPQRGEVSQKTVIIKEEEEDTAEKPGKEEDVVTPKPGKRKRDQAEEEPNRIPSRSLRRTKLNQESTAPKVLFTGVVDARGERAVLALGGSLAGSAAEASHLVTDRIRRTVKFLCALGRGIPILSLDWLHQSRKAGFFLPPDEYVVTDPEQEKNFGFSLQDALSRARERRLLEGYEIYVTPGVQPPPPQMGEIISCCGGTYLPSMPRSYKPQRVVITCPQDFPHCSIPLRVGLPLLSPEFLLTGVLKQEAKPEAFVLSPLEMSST
With S102A the “effect of a mutation on the interaction” value was “disrupting interaction”.
